Measurements reported in article PMC3983062.

Target: RRV ORF45 (R45), as expressed in RRV-infected rhesus fibroblasts (Rhesus monkey rhadinovirus (RRV), strain H26-95) (UniProt Q9J2K2)
Test: FRET or BRET; filter-based processed FRET (PFRET) on fixed RRV-infected RhF stained with labelled antibodies (Alexa488 donor, Alexa555 acceptor); regions of interest in the nuclei

Row | Substance | r (distance between the fluorophores, from FRET)
1 | RSK2 (p90 ribosomal S6 kinase 2), endogenous in rhesus fibroblasts (natural protein) | 4.7 nm
2 | pERK2 (phosphorylated, activated ERK2), endogenous in rhesus fibroblasts (from UniProt F7ECR3 1-360) (natural protein) | 4.5 nm
